Results taken from the nanobody polyreactivity screen of Harvey et al. (2022).

Assay: yeast display, Sf9 membrane polyspecificity reagent, FACS + sequencing; frameworks hold sequencing errors
How it was run: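 Genes from sorted yeast were amplified by colony PCR, read by MiSeq 2 × 250 sequencing and filtered on CDR length. These cells carried a synthetic nanobody library in Saccharomyces cerevisiae BJ5465 and were sorted by FACS into low and high (top ~1%) gates on anti-HA and streptavidin fluorescence. Polyreactivity is labelled according to the gate of origin.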

Sequence | polyreactivity (PSR sort gate)
QVQLVESGGGLVQAGGSLRLSCAASGINISYYAMGWYRQAPGKEREFVAAISWSVGSTYYADSVKGRFTISRDNAKYTVYLQMNSLKPEDTAVYYCAAEDGYWPTYYYWGQGSQVTVSS | high polyreactivity
QVQLVESGGGLVQAGGSLRLSCAASGSIFTRNTMGWSRQAPGKERELVAAISQRGGSTYSADSVKGRFTISRDNAKNTVYLQMNSLKPEDTAVYYCAADFSFGYYWDGFWGQGTQVTVSS | high polyreactivity
QVQLVESGGGLDQAGGSLRLSCAASGYIFGSYAMGWYRQAPGKERELVAAITISGGRTYYADSVKGRFTISRDNAKNTVYLQMNSLLPEDTAVYYCAKDGERSRNGRIHYDYWGQGTKVTVSS | low polyreactivity
QVQLVESGGGLVQAGGSLRLSCAASGSIFKYYAMGWYRQAPGKERELVAAISSSGGSTYYADSVKGRFTISRDYAKYTVYCQMNSLKPQDTAVYYCNTPYIWKNYDYWGQGSQVTVSS | high polyreactivity
QVQLVESGGGLVQAGGSLRLSCAASGSTFRLNAMGWYRQAPGKERELVAAISRSTGTTHYADSVKGRFTISRDNAKNTVYLQMNSLKPEDTAVYYCATDRAKWHKNGDLGYWGQGTQVTVSS | low polyreactivity
QVQVVESGGGLVQAGGSLRLSCAASGSSFGVNAMGRYTQAPGKERELVASITWSGDNTYYADSVKGRFTISRDNAKNTVYLQMNSLKPEDTAVYYCAATIWIAYRGWYSDYNYWGQGTQVTVSS | low polyreactivity
QVQHVESGGGLVQAGGSLRLSCAASGFIFPNNAMGWYLQAPGKERELVARISYGGGDTHYADSVKGRFTISRDNAKNTVSLQMNSLKPEDTAVYYCAVKVGQDDYWGQGTQVTVSS | low polyreactivity
QVQLVESGGGLVQAGGSLRLSCGASGSFFYFYSMGWYRQAPGKEREVVAAITDGGSTHYADSVKGRFTISRDNAKNTVDLQMNSLKPEDTAVYYCAAQWHYYLGSGYQYDYWGQGTQVTVSS | low polyreactivity
QVQLVESGGGLVQAGGSLRLSCAASGSTFAYNAMGWYRQAPGKERELVAAISKGGGSTYYADSVKGRFTISRDNAKNTVYLQMNSLKPEDTAVYYCNAYYRSPRGYNYWGQGTQVTVSS | high polyreactivity
QVQLVESGGGLVQAGGSLRLSCADSGRIFNGYGMGWYRQAPGKERELVATISSSGDSTYYADSVKGRFTISRDNAKNTVYLQMNSLKPEDTAVYYCAKRARYKFGYWGQGTQVTVSS | high polyreactivity
QVQLVESGGGLVQAGGSLRLSCAASGRTFSPYVMGWYRQAPGKETELVATITGGGGSTYYADSVKGRFTISRDNAKNTVFLQMNSLKPEDTAVYYCARGYRYYVYRMGYWGQGTQVTVSS | high polyreactivity
QVQHVESGGGLVQAGGSLRLSCAASGFIFRYYAMGWYRQAPGKERELVAAITWNGGSTYYADSVKGRFTISRDNAKNTVYLQLNSLKPEDTAVYYCADVPYTPSPYTYGYWGQGTQVSVSS | high polyreactivity
QVQLVESGGGLVQAGGSLRLSCAASGSTFGRNAMGWYRQAPGKERELVAAINWSDGSTHYADSVKGRFTISRDNAKNTVYLQMNSLKPEDTAVYYCAADAWSWPVDYNYWGQGTQVTVSS | low polyreactivity
QVQLVESGGGLVQAGGSLRLICAASGLIFRGYAKGWYRQAPGKERELVAAISKSGGSTYYADSVKGRFTISRDNAKNTVYLQMNSLKPEDTAVYYCNTDYVWKYFLSSQYDYWGQGTQVTVSS | high polyreactivity
QLQLVESGGRLVQAAVSLRLSFAASGRTFYPYAMGWYRPAPGKERELVAAITSRGASTYYADSVKGRFTISRDNAKNTVYLQMNSLKPEDTAVYYCNSGRTYRRLGDYLGQGTQVTVSS | high polyreactivity
QVQLVESGGGLVQAGGSLRLSCAASGRTFAAYAMGWYRPAPGKERELVAGITSSSVRTYYADSVKGRFTISRDNAKNTVYLQMNSLKPEDTAVYYRTARADGSSSRWRPYSKFYYWGQGTQVTVSS | low polyreactivity
QVQLVDSGGGLVQAGGSLRLSCAASGSTFTRNVMGWYRQAPGKERELVASISRSGGRTYYADSVKGRFTISRDNAMNTVYLQMNSMKPDDTAVYYCAAKYFYYLDPYDYWGQGTHVTVSS | high polyreactivity
QVQLVESGGGLVQAGGSLRLSCPASGSIFRFYTMGWYRQAPGKERELVASITWTGGSSYYADSVKGRFTISRDNAKNTVYLQMNSLKPEDTAVYYCAARRYLRLVGRYDYWGQGTQVTVSS | low polyreactivity
QVQLVESGGGLVQAGGSLRLSCAASGRTIRYYTMGWYRQAPGKETELVATITGTGSTNYADSVKGRFTISRDNAKNTVYFQMNSLKPEDTEVYYCNARWDFVGTWRIYNYWGQGTQVTVSS | high polyreactivity
QVQLVESGGGLVQAGGSLRLSCAASGSIIAAYAMGWYRQAPGKERELVAAIRWNGGSTYYADSVKGRFTISRDNAKNTVYLQMISLKPEDTAVFYCAADYIYYPVYEFGYWGQGTQVTVSS | low polyreactivity
QVQLVESGGGLVQAGGSLRLSCAASGRLFSYNAMGWYSQAPGKERELVAGITYGSTYYADSVKGRFRISRDNAKNTVYLQMNSLKPEDTAVYYSAADQSYTSVHGYRSDTLMDYWGQGTQGTVSS | low polyreactivity
QVQLVESGGGLVQAGGSLRLSCAASGSTFYYNAMGWYRQAPGKEREFVAANSSRGGSTYYADSVKGRFTISRDNAKNTVYLQMNSLKPEDTAVYYCAADYYVWTPIGVRQYDYWGHGTQVTVSS | high polyreactivity

Sequence | polyreactivity (PSR sort gate)
QVQLVESGGGLVQAGGSLRLSCAASGITFGRNTMGWYRQAPGKERELVAAIDSGGNTYADSVKWRFTISRDNAKNTVYLQMNSLKPEDTAVYYCAADIGSWYDYWGQGTQVTVSS | low polyreactivity
QVQLVESGGGLVQAGGSLRLSCDASGRIISYNAMGWYRQAPGKERELVAAISWGGGSTYYADSVKGRFTISRDNAKNTVYLQMNSLKPEDTAVYYCAKGWYRIKRNDYWGQGTQVTVSS | low polyreactivity
QVQLVESGGGLVQAGGSLRLSCAASARIFRYYAMGWYRQAPGKERELVAGISWRGSSTYYADSVKGRFTISRDNAKNTVYLQMNSLKPEDTAVYYCNRDQSNIPVTGGRFYYWRQGTQVTVSS | high polyreactivity
QVQLVESGGGLVQAGGSLRLTCAASGYIFNRNAMGWYRQAPGKERELVAAISGSGAVTYYADSVKGRFTISRDNAKNTVYFQMNSLKPEDTAVYYCAKKLYWREGRYDYWGQGTQVTVSS | high polyreactivity
QVQLLESGGGLVQAGGSLRLSCAASGYTFAYYAMGWYRQAPGKERELVATISWSDGSTYYADSVKGRFTISRDNAKNTVYLQMNSLKPEDTAVYYCAADTPGYYTYYGFGYWGQGTQVTVSS | low polyreactivity
QVQLVESGGGLVQAGGSLRLSCAASGFIFTFYAMGWYRQAPGKERELVAAISSSGGSTYYADSVKGRFTISRDNAKNTVYLQMNSLKPEDTAVYYCNAVRYHARSGWSDYWGQGTQVTVSS | high polyreactivity
QVHLVESGGGLVQAGGSLRLSCAASGSTFQLYAMGWYRQAPGKERELVAAITSSAGRTYYADSVKGRFTISRDNAKNTVYLQMNSLKPEDTAVYYCAKDGSFTFWGQGTQVTVSS | low polyreactivity
QVQLVESGGGLVQAGGSLRLSCAASGRILYYYAMGWYRQAPGKERELVAAITSGGSTYADSVKGRFTISRDNAKNTVYLQMNSLKPEDTAVYYCNARPVYGSRFYSAVRMEYWGQGTQVTVSS | low polyreactivity
QVQLVESGGGLVQAGGSLRLSCAASGSTFDSYAMGWYRQAPGKERELVAAITNGGSTYYADSVKGRFTISRDNAKNTVYLQMNSLKPEDTEVYYCATDDYLLDYLYDYWGQGTQVTVSS | low polyreactivity
QVQLVESGGGLVQAGGSLRLSCAASGRIFAYNAMGWYRQAPGKERELVAAISWRVGCTYYADSVKGRFTISRDHAKNTVYLQMNSLKPEDTAVYYCNEAYYRHYQGDYWGQGTQVTVSS | high polyreactivity
QVQLVESGGGLVQAGGILRLNCAASGFIFRRYAMGWSRQAPGKERELVAAISSGGTSTYYADSVKGRFTISRDNAKYTVYLQKNSLKPEDTAVSYCNVDTDPYYWGGDYYWGQGTQVTVSS | high polyreactivity
QVQHVESGGGLVQAGGSLRLSCAASGRTSNIYAMGWYRQAPGKERELVAAIRTGGSTNYADSVKGRFTISRDNAKNTVYLQMNSLKPEDTAVYYCAATSRRSRPAEEYWGQGTQVTVSS | high polyreactivity
QVQLVESGGGLVQAGGSLRLSCAASGSIFSWNAMGWYRPAPGKEREFVAAISYGSTSTTYADSVKGRFTISRDNAKNTVYLQMNSLKPEDTAVYYCAAVPRRSGHQRWGATYYYWGQGTQVTVSS | high polyreactivity
QVQLVVSGGGLVQEGGSLRLSCAAYGNTFFVYAMGGYRQAPGKERELDASITLSGDTTYYADSVKGRFTISRDNAKNPVYLQMNSLKPEDNAVYYCAAKDIRYDDDYWGQGTQVNVSS | low polyreactivity
QVQLVESGGGLVQAGGSLRISCAASGFIYTRYTMGWYRQAPGKERELVAVINSSGGSTYYADSVKGRFTISRDNAKNTVYLQMNSLKPEDTAVYYCNALSRYRIWSYGYWGPGTQVTVSS | high polyreactivity
QVQLVESGGGLVQAGGSLRLSCAASGRIFPYNAMGWYRQAAGKERELVAAISLSGDSTYYADSVKGRFTISRDNAKNTVFLHMNSLKPEDTAVYYCNAPSYWYYPVLGSFLTFEYWGQGTQVTVSS | low polyreactivity
QVQLVESAGGLVQAGGSLRLSCAASGSTFRLNTMGWYRQEPGNERELVAGISYSGGSTYYADSVNGRFTISRDNAKNTVYLQMNSLKPEDTAVYYCNKRAWFSSKDDYWGQGTQVTVSS | high polyreactivity
QVQLEESGGGLVQAGGSLRLSCAASGFTFSHNAMGWYIQAPGKERELVAAITRDSGSTYYADSVKGRFTISRDNAKNTVYLQMNSLTPEDTAVYYCAADIASGYYWYDYWGQGTQVTVSS | low polyreactivity
QVQLVESGGGLVQAGGSLRLSCAASGSIFTPNSMGSYRPAPGKERELVAAISSSSDRTYYADSVKGRFTISRDNAKNTVYLQRNSLKPEDTAVYYCAAYAQKRYYWGQGTEVTVSS | high polyreactivity
QVQLVESGGGLVQAGGSLRLSCAASGIIFYGYAMGWYRQAPGKERELVAAITYSGGSTYYADSVKGRFTISRDNAKNTVYLQMNSLKPEDTAVYYCAAYDAYSPYQALYDYWGQGTQVTVSS | low polyreactivity
QVQLVESGGGLVQEGGSLRLICAASGRTLNSYDMGWYRQEPGKERELVAAISWSGTNTYYSDSVKGRFTISRDNAKNTVYLQMNCLKPEDTAVYYCNAVTKATRYEYWGQGTQVTVSS | high polyreactivity
